Measured values taken from patent US20200199204A1.

Tests used:
Assay in all cases: cell-based or functional assay
[1] = target: HIV-1 Env of QH0692.42 (HIV-1)
[2] = target: HIV-1 Env of ZM249.1 (HIV-1)
[3] = target: HIV-1 Env of Q259.d2.17 (HIV-1)
[4] = target: HIV-1 Env of CAP244.D3 (HIV-1)
[5] = target: HIV-1 Env of C1080.c3 (HIV-1)
[6] = target: HIV-1 Env of RHPA.7 (HIV-1)
[7] = target: HIV-1 Env of AC10.29 (HIV-1)
[8] = target: HIV-1 Env of PVO.04 (HIV-1)
[9] = target: HIV-1 Env of RW020.2 (HIV-1)
[10] = target: HIV-1 Env of THRO.18 (HIV-1)
[11] = target: HIV-1 Env of MB539.2B7 (HIV-1)
[12] = target: HIV-1 Env of Q23.17 (HIV-1)
[13] = target: HIV-1 Env of Q769.d22 (HIV-1)
[14] = target: HIV-1 Env of DU422.01 (HIV-1)
[15] = target: HIV-1 Env of TRJO.58 (HIV-1)
[16] = target: HIV-1 Env of CNE3 (HIV-1)
[17] = target: HIV-1 Env of KER2018.11 (HIV-1)
[18] = target: HIV-1 Env of Q461.e2 (HIV-1)
[19] = target: HIV-1 Env of Q168.a2 (HIV-1)
[20] = target: HIV-1 Env of UG037.8 (HIV-1)
[21] = target: HIV-1 Env of TRO.11 (HIV-1)
[22] = target: HIV-1 Env of ZM214.15 (HIV-1)
[23] = target: HIV-1 Env of ZM197.7 (HIV-1)
[24] = target: HIV-1 Env of 6535.3 (HIV-1)
[25] = target: HIV-1 Env of 96ZM651.02 (HIV-1)
[26] = target: HIV-1 Env of CAP256.SU (HIV-1)
[27] = target: HIV-1 Env of 191821.E6.1 (HIV-1)
[28] = target: HIV-1 Env of ZM109.4 (HIV-1)
[29] = target: HIV-1 Env of CAP210.E8 (HIV-1)
[30] = target: HIV-1 Env of CAP45.G3 (HIV-1)
[31] = target: HIV-1 Env of CAP256.PI (HIV-1)
[32] = target: HIV-1 Env of ZM233.6 (HIV-1)
[33] = target: HIV-1 Env of KER2008.12 (HIV-1)
[34] = target: HIV-1 Env of CAAN.A2 (HIV-1)
[35] = target: HIV-1 Env of ZM53.12 (HIV-1)
[36] = target: HIV-1 Env of 0260.v5.c36 (HIV-1)
[37] = target: HIV-1 Env of WITO.33 (HIV-1)
[38] = target: HIV-1 Env of DU156.12 (HIV-1)
[39] = target: HIV-1 Env of Q842.d12 (HIV-1)
[40] = target: HIV-1 Env of REJO.67 (HIV-1)
[41] = target: HIV-1 Env of BG505.w6m (HIV-1)
[42] = target: HIV-1 Env of 3016.V5.c36 (HIV-1)
[43] = target: HIV-1 Env of MB201 (HIV-1)
[44] = target: HIV-1 Env of TH976.17 (HIV-1)
[45] = target: HIV-1 Env of DU172.17 (HIV-1)
[46] = target: HIV-1 Env of 6405.v4.c34 (HIV-1)
[47] = target: HIV-1 Env of ZM135.10a (HIV-1)
[48] = target: HIV-1 Env of SC422.8 (HIV-1)
[49] = target: HIV-1 Env of CM244.ec1 (HIV-1)

## CAP256-VRC26.20 (antibody)
[1]
  IC50: > 50 µg/mL
[2]
  IC50: > 50 µg/mL
[3]
  IC50: > 50 µg/mL
[4]
  IC50: > 50 µg/mL
[5]
  IC50: > 50 µg/mL
[6]
  IC50: > 50 µg/mL
[7]
  IC50: > 50 µg/mL
[8]
  IC50: > 50 µg/mL
[9]
  IC50: > 50 µg/mL
[10]
  IC50: > 50 µg/mL
[11]
  IC50: > 50 µg/mL
[12]
  IC50: > 50 µg/mL
[13]
  IC50: > 50 µg/mL
[14]
  IC50: > 50 µg/mL
[15]
  IC50: > 50 µg/mL
[16]
  IC50 (neutralization, TZM-bl): > 50 µg/mL
[17]
  IC50: > 50 µg/mL
[18]
  IC50: > 50 µg/mL
[19]
  IC50: > 50 µg/mL
[20]
  IC50: > 50 µg/mL
[21]
  IC50: > 50 µg/mL
[22]
  IC50: > 50 µg/mL
[23]
  IC50: > 50 µg/mL
[24]
  IC50: > 50 µg/mL
[25]
  IC50: > 50 µg/mL
[26]
  IC50: > 50 µg/mL
[27]
  IC50: > 50 µg/mL
[28]
  IC50: > 50 µg/mL
[29]
  IC50: > 50 µg/mL
[30]
  IC50: > 50 µg/mL
[31]
  IC50: > 50 µg/mL
[32]
  IC50: > 50 µg/mL
[33]
  IC50: > 50 µg/mL
[34]
  IC50: > 50 µg/mL
[35]
  IC50: 1.87 µg/mL
[36]
  IC50: > 50 µg/mL
[37]
  IC50: > 50 µg/mL
[38]
  IC50: > 50 µg/mL
[39]
  IC50: > 50 µg/mL
[40]
  IC50: > 50 µg/mL
[41]
  IC50: > 50 µg/mL
[42]
  IC50: > 50 µg/mL
[43]
  IC50: > 50 µg/mL
[44]
  IC50 (neutralization, TZM-bl): > 50 µg/mL
[45]
  IC50: > 50 µg/mL
[46]
  IC50: > 50 µg/mL
[47]
  IC50: > 50 µg/mL
[48]
  IC50: > 50 µg/mL
[49]
  IC50: > 50 µg/mL

## CAP256-VRC26.21 (antibody)
[1]
  IC50: > 50 µg/mL
[2]
  IC50: > 50 µg/mL
[3]
  IC50: 25.4 µg/mL
[4]
  IC50: > 50 µg/mL
[5]
  IC50: > 50 µg/mL
[6]
  IC50: > 50 µg/mL
[7]
  IC50: > 50 µg/mL
[8]
  IC50: > 50 µg/mL
[9]
  IC50: > 50 µg/mL
[10]
  IC50: > 50 µg/mL
[11]
  IC50: > 50 µg/mL
[12]
  IC50: > 50 µg/mL
[13]
  IC50: > 50 µg/mL
[14]
  IC50: 1.1 µg/mL
[15]
  IC50: > 50 µg/mL
[16]
  IC50 (neutralization, TZM-bl): > 50 µg/mL
[17]
  IC50: 0.06 µg/mL
[18]
  IC50: > 50 µg/mL
[19]
  IC50: > 50 µg/mL
[20]
  IC50: > 50 µg/mL
[21]
  IC50: > 50 µg/mL
[22]
  IC50: > 50 µg/mL
[23]
  IC50: > 50 µg/mL
[24]
  IC50: > 50 µg/mL
[25]
  IC50: > 50 µg/mL
[26]
  IC50: 0.002 µg/mL
[27]
  IC50: > 50 µg/mL
[28]
  IC50: > 50 µg/mL
[29]
  IC50: 0.005 µg/mL
[30]
  IC50: > 50 µg/mL
[31]
  IC50: > 50 µg/mL
[32]
  IC50: 26.5 µg/mL
[33]
  IC50: > 50 µg/mL
[34]
  IC50: > 50 µg/mL
[35]
  IC50: 0.003 µg/mL
[36]
  IC50: > 50 µg/mL
[37]
  IC50: > 50 µg/mL
[38]
  IC50: > 50 µg/mL
[39]
  IC50: > 50 µg/mL
[40]
  IC50: > 50 µg/mL
[41]
  IC50: > 50 µg/mL
[42]
  IC50: > 50 µg/mL
[43]
  IC50: > 50 µg/mL
[44]
  IC50 (neutralization, TZM-bl): > 50 µg/mL
[45]
  IC50: > 50 µg/mL
[46]
  IC50: > 50 µg/mL
[47]
  IC50: > 50 µg/mL
[48]
  IC50: > 50 µg/mL
[49]
  IC50: > 50 µg/mL

## CAP256-VRC26.22 (antibody)
[1]
  IC50: > 50 µg/mL
[2]
  IC50: 0.13 µg/mL
[3]
  IC50: 0.005 µg/mL
[4]
  IC50: > 50 µg/mL
[5]
  IC50: 0.013 µg/mL
[6]
  IC50: > 50 µg/mL
[7]
  IC50: > 50 µg/mL
[8]
  IC50: 9.03 µg/mL
[9]
  IC50: > 50 µg/mL
[10]
  IC50: > 50 µg/mL
[11]
  IC50: 17.9 µg/mL
[12]
  IC50: 0.006 µg/mL
[13]
  IC50: > 50 µg/mL
[14]
  IC50: 0.012 µg/mL
[15]
  IC50: > 50 µg/mL
[16]
  IC50 (neutralization, TZM-bl): > 50 µg/mL
[17]
  IC50: 0.002 µg/mL
[18]
  IC50: 4.1 µg/mL
[19]
  IC50: 0.007 µg/mL
[20]
  IC50: > 50 µg/mL
[21]
  IC50: > 50 µg/mL
[22]
  IC50: > 50 µg/mL
[23]
  IC50: 0.09 µg/mL
[24]
  IC50: > 50 µg/mL
[25]
  IC50: > 50 µg/mL
[26]
  IC50: 0.002 µg/mL
[27]
  IC50: 2.12 µg/mL
[28]
  IC50: > 50 µg/mL
[29]
  IC50: 0.003 µg/mL
[30]
  IC50: 1.4 µg/mL
[31]
  IC50: > 50 µg/mL
[32]
  IC50: 0.001 µg/mL
[33]
  IC50: 1.23 µg/mL
[34]
  IC50: > 50 µg/mL
[35]
  IC50: 0.002 µg/mL
[36]
  IC50: > 50 µg/mL
[37]
  IC50: > 50 µg/mL
[38]
  IC50: 0.15 µg/mL
[39]
  IC50: 0.63 µg/mL
[40]
  IC50: > 50 µg/mL
[41]
  IC50: 0.035 µg/mL
[42]
  IC50: 0.022 µg/mL
[43]
  IC50: > 50 µg/mL
[44]
  IC50 (neutralization, TZM-bl): > 50 µg/mL
[45]
  IC50: > 50 µg/mL
[46]
  IC50: > 50 µg/mL
[47]
  IC50: > 50 µg/mL
[48]
  IC50: > 50 µg/mL
[49]
  IC50: 4.54 µg/mL
